Results published in patent US20240376207A1 (JIANGSU HENGRUI PHARMACEUTICALS, published 2024).

T1: human IgG1 Fc-tagged mouse PVRIG (m-PVRIG-hIgG1 Fc) (mouse, UniProt A0A1B0GS01 35-165)
T1 construct: bought from Acrobiosystems; also called Mouse PVRIG-Fc; mouse PVRIG recombinant protein; not shown: human IgG1 Fc tag of the Acrobiosystems product, and any linker to it
T1 sequence: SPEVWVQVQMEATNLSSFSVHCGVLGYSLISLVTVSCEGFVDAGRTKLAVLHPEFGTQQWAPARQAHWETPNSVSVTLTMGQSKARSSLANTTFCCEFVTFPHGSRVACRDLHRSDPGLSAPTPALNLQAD

T2: his-tagged cynomolgus monkey PVRIG (cyno-PVRIG-his) recombinant protein (cynomolgus monkey)
T2 construct: expressed in HEK293, purified by Ni-NTA; also called Monkey PVRIG-his; cynomolgus monkey PVRIG recombinant protein
T2 chain: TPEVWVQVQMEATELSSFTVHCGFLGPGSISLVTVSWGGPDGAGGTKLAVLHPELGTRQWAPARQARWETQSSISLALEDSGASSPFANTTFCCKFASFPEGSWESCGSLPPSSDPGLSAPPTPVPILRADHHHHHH

T3: human PVRIG expressed on cells (human, UniProt Q6DKI7 41-326)
T3 sequence (looked up): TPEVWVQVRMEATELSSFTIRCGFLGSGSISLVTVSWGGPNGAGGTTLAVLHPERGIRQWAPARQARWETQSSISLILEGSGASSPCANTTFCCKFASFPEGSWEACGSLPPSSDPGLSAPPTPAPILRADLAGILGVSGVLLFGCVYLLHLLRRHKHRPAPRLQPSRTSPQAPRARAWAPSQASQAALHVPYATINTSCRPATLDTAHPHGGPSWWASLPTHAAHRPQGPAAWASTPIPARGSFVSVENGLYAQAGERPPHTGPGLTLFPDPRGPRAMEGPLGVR

T4: cynomolgus monkey PVRIG expressed on cells (cynomolgus monkey, UniProt A0A2K5WVV8 1-322)
T4 construct: whole, on cells; also called Monkey PVRIG FACS; cells overexpressing cynomolgus monkey PVRIG
T4 sequence: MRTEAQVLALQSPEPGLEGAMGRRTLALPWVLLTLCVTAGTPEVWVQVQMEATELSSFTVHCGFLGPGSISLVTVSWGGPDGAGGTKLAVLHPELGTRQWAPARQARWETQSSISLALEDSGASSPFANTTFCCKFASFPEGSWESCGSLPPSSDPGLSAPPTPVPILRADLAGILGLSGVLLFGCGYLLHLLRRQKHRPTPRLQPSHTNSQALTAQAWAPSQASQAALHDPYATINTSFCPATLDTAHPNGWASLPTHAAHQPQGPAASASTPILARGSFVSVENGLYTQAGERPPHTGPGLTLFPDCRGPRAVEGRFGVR

T5: his-tagged human PVRIG (h-PVRIG-his) recombinant protein (human, UniProt Q6DKI7 41-171, limits assumed)
T5 construct: bought from Acrobiosystems; also called Human PVRIG-his; human PVRIG recombinant protein; not shown: his tag
T5 sequence (looked up): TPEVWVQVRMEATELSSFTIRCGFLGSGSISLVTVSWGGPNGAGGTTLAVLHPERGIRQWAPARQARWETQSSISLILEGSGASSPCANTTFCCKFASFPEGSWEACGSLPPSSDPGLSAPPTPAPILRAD

B1: anti-PVRIG antibody 20 (antibody, human IgG4 S228P, F234A L235A, V domains shown)
VH: DVQLVESGGGSVQAGGSLRLSCVASRYTSRTDCMGWFRQAPGKEHEGVAHIDSDGIPRYVDSVKGRFTISQDHAKNTLYLQMNSLKPEDSATYYCVVGFKFDDDYCAPNDWGQGTQVTVSS
notes: no light chain
B2: humanized anti-PVRIG antibody 20H5 (antibody, human IgG4 S228P, F234A L235A, V domains shown)
VH: EVQLVESGGGLVQPGGSLRLSCAASGYTSRTDCMGWFRQAPGKEHEGVAHIDSDGIPRYVDSVKGRFTISQDHAKNSLYLQMNSLRAEDTAVYYCVVGFKFDEDYCAPNDWGQGTMVTVSS
B3: humanized anti-PVRIG antibody 30H2 (antibody, human IgG4 S228P, F234A L235A, V domains shown)
VH: EVQLVESGGGLVQPGGSLRLSCAASGFTFSGDCMGWFRQAPGKGLDEGVATIDNAGRIKYADSVKGRFTISRDNAKNSLYLQMNSLRAEDTAVYYCAAGWTFGGQCSPADWGQGTQVTVSS

Legend:
[1] = target: T1, human IgG1 Fc-tagged mouse PVRIG …; assay: ELISA, coated antigen
Procedure: (§1) ELISA assay was used to detect binding properties of anti-PVRIG antibodies. […] After the antibody was added, the activity of the binding of the antibody to the antigen was detected by adding a secondary antibody (HRP-conjugated anti-primary antibody Fc antibody) and HRP substrate TMIB.
(§2) A human, cynomolgus monkey, or mouse PVRIG protein (at a concentration of 1 μg/mL) was coated on a 96-well microplate at 100 μL per well, and incubated overnight at 4° C. The plate was washed three times with wash buffer at 250 μL per well. For each wash, the plate was shaken for 10 s to ensure adequate cleaning. A blocking solution (PBS+0.05% Tween20+1% BSA) was added at 300 μL/well, and the plate was incubated at room temperature for 1 h. The plate was washed three times with wash buffer at 250 μL per well. For each wash, the plate was shaken for 10 s to ensure adequate cleaning. Dilutions of the test anti-PVRIG antibodies were added at 100 μL/well. The plate was incubated at 37° C. for 1 h. The plate was washed three times with wash buffer at 250 μL per well. The […] anti-human IgG secondary antibody (Sigma, A8667) was added at 100 μL per well. The plate was incubated at 37° C. for 1 h. The plate was washed three times with wash buffer at 250 μL per well. TMB was added at 100 μL/well, and the plate was incubated in the dark for 15 min. 0.16 M sulfuric acid was added at 50 μL/well. The OD values at 450 nm were read by using a Thermo MultiSkanFc microplate reader, and the EC₅₀ values of the binding of the anti-PVRIG antibodies to PVRIG were calculated.

[2] = target: T2, his-tagged cynomolgus monkey PVRIG …; assay: ELISA, coated antigen
Procedure: as §1, §2

[3] = target: T3, human PVRIG expressed on cells; assay: cell-based or functional assay
[4] = target: T3, human PVRIG expressed on cells; assay: cell-based or functional assay; remark: listed apart in the source
[5] = target: T3, human PVRIG expressed on cells; assay: FACS, HEK293 cells overexpressing target
Procedure: (§3) The expression plasmid carrying human or cynomolgus monkey PVRIG gene sequence was transfected into HEK293 cells, and the over-expressing stable transfection monoclonal cell strain was obtained by antibiotic screening and infinite dilution. Overexpressing cells were seeded into a 96-well plate at 2×10⁵ cells/per well. The cells were centrifuged at 300 g for 5 min, the supernatant was then removed, 100 μL of the test antibody was added, and the mixture was incubated at 4° C. for 1 h. The mixture was centrifuged, the supernatant was removed, the plate was washed 3 times with 200 μL of wash buffer (PBS+2% FBS), and then 100 μL of an anti-human IgG secondary antibody (Invitrogen, A-11013) labeled with Alexa Fluor 488 diluted at 1:500 was added. The mixture was incubated at 4° C. for 1 h. The plate was centrifuged, and the supernatant was removed. The plate was washed 3 times with 200 μL of wash buffer (PBS+2% FBS). The cells were resuspended in 100 μL of PBS and tested on a flow cytometer (BD FACS Calibur or BD FACS Canto_II).
(§4) Binding of the humanized anti-PVRIG antibodies to human or cynomolgus monkey PVRIG was detected by using a flow cytometer according to the method of Example 5.

[6] = target: T4, cynomolgus monkey PVRIG expressed on …; assay: FACS, HEK293 cells overexpressing target
Procedure: as §3, §4

[7] = target: T5, his-tagged human PVRIG (h-PVRIG-his) …; assay: BLI (Fortebio), antibody on Protein A sensor, 1:1 fit
Procedure: A Protein A biosensor (Fortebio, #18-5010) was immersed in 200 μL of KB buffer (PBS, pH 7.4, 0.02% tween-20, 0.1% BSA) for 60 s for the wetting treatment. Then, the anti-PVRIG antibody was diluted to 10 μg/mL with the KB buffer, and the sensor was immersed in 200 μL of the solution until the reading was 1.2 nm. The sensor was immersed in the KB buffer for 100 s to elute excess antibody. The his-tagged human PVRIG was diluted in a 2-fold gradient to 64 nM-4 nM with the KB buffer. The sensor was immersed in the solution for 300 s for binding. The sensor was immersed in the KB buffer for 600 s for dissociation. The data were fitted in a dynamic 1:1 binding mode.
The affinity of the humanized anti-PVRIG antibodies for human PVRIG was detected according to the method of Example 7. All the antibodies listed in the Table have high affinity for human PVRIG.

| Binder | binding result [1] | EC50 [2] [pM] | PVRIG reporter gene cell activity EC50 [3] [pM] | NK92 killing of K562, killing activity (%), 4 nM antibody [4] [%] | NK92 killing of K562, killing activity (%), 20 nM antibody [4] [%] | NK92 killing of K562, killing activity (%), 100 nM antibody [4] [%] | EC50 [5] [pM] | EC50 [6] [pM] | Kd [7] [pM] | koff [7] [s⁻¹] | kon [7] [M⁻¹ s⁻¹] |
| --- | --- | --- | --- | --- | --- | --- | --- | --- | --- | --- | --- |
| B1 | no binding | 140 | – | – | – | – | – | – | – | – | – |
| B2 | – | – | 42 | 9.2 | 9.9 | 13.3 | 5 | 7 | 69.8 | 1.35e-05 | 193000 |
| B3 | – | – | 176 | 7.7 | 14.5 | 17.7 | 3 | 5 | 1920 | 0.000325 | 169000 |
